In PMC5471280, “An alternative conformation of ERβ bound to estradiol reveals H12 in a stable antagonist position” (Scientific Reports, 2017):

Biological target: the molecule itself
Experiment: crystal structure; ERβ LBD-E2 complex at 5 mg/mL; sitting drop, 19 °C; 0.1 M Na-citrate pH 5.5, 10% PEG-4000, 10% isopropanol; no coactivator peptide; 2.5 Å; dimer in the asymmetric unit

B1: human estrogen receptor beta ligand-binding domain (residues 256-501) bound to 17β-estradiol (domain or fragment, UniProt Q92731 256-501, looked up)
chain: RELLLDALSPEQLVLTLLEAEPPHVLISRPSAPFTEASMMMSLTKLADKELVHMISWAKKIPGFVELSLFDQVRLLESCWMEVLMMGLMWRSIDHPGKLIFAPDLVLDRDEGKCVEGILEIFDMLLATTSRFRELKLQHKEYLCVKAMILLNSSMYPLVTATQDADSSRKLAHLLNAVTDALVWVIAKSGISSQQQSMRLANLLMLLSHVRHASNKGMEHLLNMKCKNVVPVYDLLLEMLNAHVLR
notes: The tag was removed with the SUMO protease Ulp1; also called ERβ LBD; hERβ LBD; source: E. coli BL21 (DE3)RIL, purified (NiNTA, Ulp1 cleavage, Superdex-75 SEC)
stoichiometry N: 2
